Data on 13 sequences can be found in patent US20230220399.

pKd: −log10 of the molar value. Read-outs that look alike come from different tables or passages of the source.

In data set [1] the target is transferrin (TF) (Homo sapiens) (UniProt P02787). Particulars: ELISA, SB18, 37 C. A general note: In an ELISA, binding on a coated surface is turned into a signal by an enzyme label.
The test system of data set [2] is KRAS G12D G12D, P01116-2. The conditions noted are these: ELISA, SB18, 37 C.
For data set [3], the target named is transferrin (TF) (Homo sapiens) (UniProt P02787). The conditions noted are these: Nap-dU at n (6) positions; ELISA, SB18, 37 C.
Data set [4] has as its system KRAS G12D G12D, P01116-2. The conditions noted are these: Nap-dU at n (6) positions; ELISA, SB18, 37 C.
Data set [5] has as its target human serum albumin (HSA) (Homo sapiens) (UniProt P02768). Particulars: ELISA, SB18, 37 C.
A further data set has as its system KRAS G12C G12C, P01116-2. Particulars: Nap-dU at n (6) positions [4,9,13,19,26,27,28,30,39]; ELISA, SB18, 37 C; text p364 misprints unit/protein.
Data set [6] concerns KRAS G12D G12D, P01116-2. The data set is described as follows: BLI. Particulars: Nap-dU at n (6) positions [4,9,13,19,26,27,28,30,39]; SB18, 37 C, immobilised biotin ligand.
The subject of the next data set is KRAS G12V G12V, P01116-2. The conditions noted are these: Nap-dU at n (6) positions [28,30,39,40,41,45,46,47,54,57]; ELISA, SB18, 37 C.
The target in data set [7] is CD3 delta/epsilon heterodimer (UniProt P04234+P07766). Particulars: ELISA, SB18, 37 C.
CD3 delta/epsilon heterodimer, sequence (P04234 22-105, stated change not applied, chain 1 of 2): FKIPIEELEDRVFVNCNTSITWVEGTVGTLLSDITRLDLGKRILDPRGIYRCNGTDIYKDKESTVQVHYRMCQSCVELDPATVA
CD3 delta/epsilon heterodimer, sequence (P07766 23-126, stated change not applied, chain 2 of 2): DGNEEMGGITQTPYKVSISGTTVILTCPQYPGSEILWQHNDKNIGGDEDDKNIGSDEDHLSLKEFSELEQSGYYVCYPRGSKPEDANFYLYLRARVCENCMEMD
Where [8] appears, read: Nap-dU at n (6) positions [17,23,30,31,32,44].
[9] abbreviates: Nap-dU at n (6) positions [Nap-dU at 2,6,8,9,11,16,17,22,24,27,35].
Where [10] appears, read: Nap-dU at n (6) positions [4,9,13,19,26,27,28,30,39].
Where [11] appears, read: Nap-dU at n (6) positions [22,28,35,36,37,49].
Setting [12] is: Nap-dU at n (6) positions [Nap-dU at 16,20,23,28,29,30,31,34,40,41,42,45,54].
Where [13] appears, read: Nap-dU at n (6) positions [Nap-dU at 3,6,11,12,13,14,17,23,24,25,28,37].
[14] abbreviates: Nap-dU at n (6) positions [Nap-dU at 5,6,7,8,11,17,18,19,22].
[15] abbreviates: Nap-dU at n (6) positions [5,10,14,20,27,28,29,31,40].
Setting [16] is: Nap-dU at n (6) positions [Nap-dU at 1,6,7,8,9,12,18,19,20,23].
The mark [17] stands for this setting: Nap-dU at n (6) positions [Nap-dU at 1,6,7,8,9,12,18,19,20,23,32].

transferrin (TF) (Homo sapiens), sequence (P02787 20-698): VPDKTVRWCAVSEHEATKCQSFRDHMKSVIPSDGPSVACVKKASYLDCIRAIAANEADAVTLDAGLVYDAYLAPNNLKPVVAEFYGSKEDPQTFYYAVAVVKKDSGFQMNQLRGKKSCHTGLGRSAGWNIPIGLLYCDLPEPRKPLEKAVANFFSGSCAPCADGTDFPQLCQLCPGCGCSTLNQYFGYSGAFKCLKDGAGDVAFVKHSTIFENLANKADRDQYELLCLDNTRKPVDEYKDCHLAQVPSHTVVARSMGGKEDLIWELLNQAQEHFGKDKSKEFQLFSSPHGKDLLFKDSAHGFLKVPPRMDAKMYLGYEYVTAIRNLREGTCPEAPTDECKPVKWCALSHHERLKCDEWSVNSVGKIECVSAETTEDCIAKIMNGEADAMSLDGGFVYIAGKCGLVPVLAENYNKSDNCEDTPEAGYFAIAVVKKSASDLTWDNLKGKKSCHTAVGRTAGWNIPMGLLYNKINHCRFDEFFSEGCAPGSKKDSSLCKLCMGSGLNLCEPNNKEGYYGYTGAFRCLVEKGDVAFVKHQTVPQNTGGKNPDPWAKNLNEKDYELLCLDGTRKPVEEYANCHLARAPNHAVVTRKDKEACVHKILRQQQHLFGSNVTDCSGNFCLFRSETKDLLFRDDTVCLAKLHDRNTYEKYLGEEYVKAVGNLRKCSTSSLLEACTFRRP

As a reminder, the pKd is the negative decadic logarithm of the Kd, by convention in mol/L. Consider “ACCGTCTGCCTGAAAGTCCGGATGGCAGCTTTACAGGCAGAACTAACG [TD007]”, for which the negative-log Kd (pKd) is 6.37 in [1] (setting [8]) and 5.67 with KRAS G12D G12D, P01116-2 [2] (setting [8]).

Turning to “ATGCCTCTTCTGCAGTTACGGTGTGATCGCCCAATAGCAGCCAC [TD012]”, the pKd is 7.83 in data set [1] (setting [9]) and 5.88 in the data set on KRAS G12D G12D, P01116-2 [2] (setting [9]).

With “CAGGNCGAGCNGNACGCGNGNGNGACCNGAAGAC [TD013]”, the pKd was 6.19 in data set [3] and 5.81 in the data set with KRAS G12D G12D, P01116-2 [4].

“GACTAGCATAAGTCCGGATGGCAGCTTTATGCCGACCAT [AD005]”: the pKd in data set [5] (setting [10]) is 6.91; with KRAS G12D G12D, P01116-2 [2] (setting [10]), 7.64; in the data set with KRAS G12C G12C, P01116-2, 8.60; in the data set on KRAS G12D G12D, P01116-2 [6], 7.45.

On to “GAGTGACCGTCTGCCTGAAAGTCCGGATGGCAGCTTTACAGGCAGAACTAACG [TD006]”, for which the negative logarithm of the Kd (pKd) in data set [1] (setting [11]) was 6.01; in the data set on KRAS G12D G12D, P01116-2 [2] (setting [11]) it was 6.20.

For the sequence “GAGTGACCGTCTGCCTGAGCAGGAGGATGTGACACAACTTTGCATTTCAAGCCTGATCAGCCACACCACCAGCC [AV001]”, the pKd with KRAS G12V G12V, P01116-2 is 7.24; in data set [5] (Nap-dU at n (6) positions [28,30,39,40,41,45,46,47,54,57]), 7.95.

In the case of “GAGTGACCGTCTGCCTGGATCCTGCCCTTTTAATCCGACTTTAATGGCCACGCTCACCAGCCACACCACCAGCC [AA001]”, the pKd in data set [7] (setting [12]) is 8.50; in [5] (setting [12]) it was 8.02.

In the case of “GATCCTGCCCTTTTAATCCGACTTTAATGGCCACGCTCAC [AA003]”, the pKd is 8.12 in data set [7] (setting [13]) and 8.36 in data set [5] (setting [13]).

GCCCTTTTAATCCGACTTTAAT [AA007]: the pKd in data set [7] (setting [14]) was 7.82; in data set [5] (setting [14]), 8.69.

Consider “GGACTAGCATAAGTCCGGATGGCAGCTTTATGCCGACCAT [TD003]”, for which the pKd in data set [1] (setting [15]) was 6.85; in the data set on KRAS G12D G12D, P01116-2 [2] (setting [15]), 5.57.

As to TGCCCTTTTAATCCGACTTTAATGGC [AA006], the negative logarithm of the Kd (pKd) in [7] (setting [16]) is 7.85; in data set [5] (setting [16]), 7.81.

As for TGCCCTTTTAATCCGACTTTAATGGCCACG [AA005], the pKd is 7.40 in [7] (setting [16]) and 8.08 in data set [5] (setting [16]).

Regarding “TGCCCTTTTAATCCGACTTTAATGGCCACGCTCAC [AA004]”, the pKd is 7.99 in [7] (setting [17]) and 8.02 in data set [5] (setting [17]).
